The chains are these.
B1: CPEB3 Ribozyme (parent)
chain: GGGGGCCACAGCAGAAGCGUUCACGUCGCGGCCCCUGUCAGAUUCUGGUGAAUCUGCGAAUUCUGCUGU

This note sets out measurements from the RNAGym collection of RNA variant scans (doi:10.7554/elife.80360).

The series covers variants of B1. As to the kind of experiment: self-cleavage, relative activity (ratio to wild type); higher = more cleavage; co-transcriptional.
As for C12A U38A, the self-cleavage was 0.493. The value for C12A U38C was 0.516. As for A13C C57G, the self-cleavage worked out at 0.235. Turning to A13C C57U, the self-cleavage came to 0.248. The value for A13U A23C was 0.793; that for A13U U49G was 0.901; that for A13U U49A was 0.91.

Take A13U U26C: the self-cleavage stood at 0.422. Take A13U U26A: the self-cleavage worked out at 0.626.

A13U U26G: the self-cleavage was found to be 0.287.

Consider C12U U46G, for which the self-cleavage amounted to 1. As to A13G U46C, the self-cleavage was 0.927. Consider A13C U46A, for which the self-cleavage came to 0.901. The value for A13C U46G was 0.885. Next, C12U C35A: 0.275. For the variant C12U C35G, the self-cleavage was found to be 0.45. For C12U C35U, the self-cleavage came to 0.947. The value for C12U G48C was 0.972; that for C12U G48A was 0.963; that for A13C G37C was 0.156. Next, C12U G58C: 1.01. The value for A13U C39U was 0.422. Regarding C12A U64A, the self-cleavage is 0.582. Next, C12A U64C: 0.58. A13C G48C: the self-cleavage is 0.917. As to A13C G48U, the self-cleavage stood at 0.934. The value for A13C G48A was 0.957; that for A13U G25C was 0.0789; that for A13U G25U was 0.108. With C12U U43A, the self-cleavage came out at 0.868. The value for C12G G28U was 0.11; that for C12G U64G was 0.395.

With C12G U64C, the self-cleavage amounted to 0.566. The value for C12U G41A was 0.716; that for C12U G41C was 0.617.

Turning to C12G A16C, the self-cleavage turned out to be 0.177.

For the variant C12G A16U, the self-cleavage came to 0.486. Consider A13G A51U, for which the self-cleavage turned out to be 0.905. The value for A13G A51G was 0.843; that for C12A G31C was 0.219.

For the variant C12A G31U, the self-cleavage turned out to be 0.258. Next, C12A G31A: 0.419; A13U C57A: 0.194; A13C C35A: 0.281.

For C12G U67C, the self-cleavage was found to be 0.917. Next, A13C G68U: 0.892. Regarding C12A U55C, the self-cleavage is 0.366. Next, C12G G56A: 0.741. As to C12G G56U, the self-cleavage came to 0.544. Next, C12G C24G: 0.199; C12G C24A: 0.374; C12G C24U: 0.435. Next, A13C G31C: 0.131; C12U C24A: 0.713; C12U C24G: 0.316. The value for C12U C24U was 0.805. Consider C12G U38C, for which the self-cleavage was determined as 0.745. Consider C12G U62A, for which the self-cleavage is 0.349. Next, C12G U62C: 0.458; C12G U69C: 1.06. Consider C12U U20G, for which the self-cleavage stood at 0.17. Take C12G G17U: the self-cleavage is 0.165. Regarding A13U G17C, the self-cleavage was 0.116.

Regarding A13G G65A, the self-cleavage was found to be 0.653. Next, A13G G65C: 0.345; A13U A59U: 0.464. The value for A13U U44A was 0.659; that for A13G U44A was 0.877; that for A13G U44C was 0.824. As for C12U C57U, the self-cleavage is 0.317. Turning to C12A C63A, the self-cleavage came to 0.336. For the variant C12A C63U, the self-cleavage turned out to be 0.364.

In the case of A13U U62G, the self-cleavage turned out to be 0.299. The value for A13U U62C was 0.278. In the case of A13G G41U, the self-cleavage is 0.583. Turning to A13G G41C, the self-cleavage is 0.547. In the case of A13C A15U, the self-cleavage is 0.145. Turning to A13C A15C, the self-cleavage was 0.264. C12U C22A: the self-cleavage was 0.2. As for C12U A15C, the self-cleavage was determined as 0.389. In the case of A13G C33A, the self-cleavage amounted to 0.942. Next, A13G C33U: 0.946. The value for A13C U67A was 0.783. Next, A13C U67C: 0.706; C12U G50U: 0.953. For A13U C27G, the self-cleavage amounted to 0.155. Next, A13U C27U: 0.134; A13C C22G: 0.149; A13C C22A: 0.0721.

Turning to C12A G58A, the self-cleavage is 0.62. Next, C12U C29A: 0.451; A13C C45U: 0.876. Next, A13C A60U: 0.276; A13C U20G: 0.089; C12G C39A: 0.484. For the variant A13C U69A, the self-cleavage stood at 0.915. On to A13C U69C, for which the self-cleavage amounted to 1.06. Next, C12G G19C: 0.0934; C12G G19A: 0.137. The value for C12G G19U was 0.0842; that for A13G C22U was 0.207.

Turning to A13G C22A, the self-cleavage was 0.106. In the case of A13G G30U, the self-cleavage was found to be 0.241. The value for C12A G41A was 0.213. Next, A13U C24G: 0.127; C12A C54U: 0.688; A13C U36G: 0.201. Regarding A13C U36A, the self-cleavage was 0.175. Take A13U A60C: the self-cleavage came to 0.318. The value for C12U U38A was 0.88; that for C12A G19A was 0.142. For the variant C12A G19U, the self-cleavage is 0.111. The value for A13C U62C was 0.475; that for A13C U62A was 0.348. With A13G A16G, the self-cleavage worked out at 0.855.

For the variant A13G A16U, the self-cleavage is 0.714. The value for A13G A16C was 0.175. With A13G A42G, the self-cleavage came to 0.855.

Consider A13G A42C, for which the self-cleavage amounted to 0.647. On to C12A C35G, for which the self-cleavage was 0.189. For the variant A13C G65U, the self-cleavage amounted to 0.41. The value for C12U U36C was 0.892; that for A13G U55A was 0.722; that for A13U G48A was 0.911. Next, A13C U64C: 0.614; C12G C34G: 0.69. Next, A13G U61A: 0.834; C12G C54G: 0.518.

Take C12A U26G: the self-cleavage turned out to be 0.447. Next, C12A U26A: 0.374; A13C G25U: 0.104. As for A13C G25A, the self-cleavage was found to be 0.129. Next, C12G U21C: 0.308; C12U G56C: 0.554; C12U G56U: 0.802.

On to A13C U38G, for which the self-cleavage is 0.0833. Regarding A13C U38C, the self-cleavage was found to be 0.668. On to A13C U38A, for which the self-cleavage worked out at 0.679. With C12G A40C, the self-cleavage was 0.318. On to A13U G28U, for which the self-cleavage came out at 0.165. Next, C12G G37U: 0.223. Consider C12G G37C, for which the self-cleavage amounted to 0.205. Consider C12A C34U, for which the self-cleavage was determined as 0.834. Next, C12A G65C: 0.841; A13U G56U: 0.348; C12G U44A: 0.727. Next, A13U U43G: 0.221; C12A G28A: 0.13. As for C12U C54U, the self-cleavage was 0.968.

On to A13G C39A, for which the self-cleavage was found to be 0.602. As to A13C U53C, the self-cleavage was 0.352.

For A13C U53G, the self-cleavage turned out to be 0.63. Turning to A13G C66A, the self-cleavage was found to be 0.295. Next, A13G C66U: 0.756; A13C A51U: 0.744; A13C A51C: 0.827.

Take C12U G68C: the self-cleavage was found to be 1.01. The value for A13U C66G was 0.413; that for A13G U67G was 0.897. On to C12G U49A, for which the self-cleavage worked out at 0.934. In the case of C12G U49C, the self-cleavage was 0.827. Regarding C12U C33A, the self-cleavage stood at 0.924. The value for C12U C33G was 0.656; that for A13C C39A was 0.372; that for A13C C39G was 0.538. As to C12G G41U, the self-cleavage stood at 0.377. Next, C12G G41C: 0.416.
